Bridges are numbered along the chain shown (N, C = ends). [ ]: non-standard residue; d: D form. pY = N[C@@H](Cc1ccc(OP(=O)(O)O)cc1)C(=O)O; R8 = C=CCCCCCC[C@@](C)(N)C(=O)O; hLeu = CC(C)CC[C@H](N)C(=O)O; S5 = C=CCCC[C@](C)(N)C(=O)O; Cou6 = not defined here; Cou8 = not defined here; βAla = NCCC(=O)O
Tests used:
[1] = biological target: MDM2 (In-house, 41 kD), Q00987; assay: competitive FP vs FAM-labelled linear peptide; grade + = greater than 1000 nM; conditions: remark: other sources report otherwise
[2] = biological target: T1, MDMX (In-house, 40 kD), O15151; assay: as above; conditions: remark: other sources report otherwise
T1 chain: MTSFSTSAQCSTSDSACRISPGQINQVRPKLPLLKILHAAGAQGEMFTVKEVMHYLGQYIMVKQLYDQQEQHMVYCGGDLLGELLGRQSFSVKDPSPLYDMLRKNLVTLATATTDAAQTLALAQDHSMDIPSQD

MDM2 (In-house, 41 kD) = MDM2 (In-house, 41 kD) (UniProt Q00987); assay: competitive fluorescence polarization, MDM2 with FAM-labeled linear peptide; graded scale of paragraph 458
MDMX (In-house, 40 kD) = biological target: T2, MDMX (In-house, 40 kD) (UniProt O15151); assay: competitive fluorescence polarization, MDMX with FAM-labeled linear peptide; graded scale of paragraph 458
T2 sequence (looked up): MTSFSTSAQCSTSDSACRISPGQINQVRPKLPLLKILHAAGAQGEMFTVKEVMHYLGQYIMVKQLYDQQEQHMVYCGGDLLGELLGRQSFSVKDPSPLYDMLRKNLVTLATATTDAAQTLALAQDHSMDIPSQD

Sequence of MDM2 (In-house, 41 kD), Q00987 (Q00987 1-138 limits assumed): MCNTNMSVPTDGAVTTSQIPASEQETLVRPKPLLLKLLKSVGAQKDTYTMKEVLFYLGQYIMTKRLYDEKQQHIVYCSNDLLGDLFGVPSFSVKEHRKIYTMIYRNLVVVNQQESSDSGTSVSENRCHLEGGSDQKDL
Sequence of MDM2 (In-house, 41 kD) (Q00987 1-138 limits assumed): as above

Which Ki [1] does the source give for Ac-LTA[R8]EYWAQL[S5]AAAAA[dA]-NH2 (staple 4-11) [SP560] here?
Its Ki is > 1000 nM.

And the Ki [2]?
Its Ki is > 1000 nM.

How did the Ki (MDM2 (In-house, 41 kD)) turn out when Ac-LTF[R8]E[pY]WAQL[S5]AAAAA[dA]-NH2 (staple 4-11) [peptidomimetic macrocycle SP615, Ac-LTF$r8EpYWAQL$AAAAAa-NH2] was run?
The Ki was < 10 nM.

And the Ki (MDMX (In-house, 40 kD))?
The Ki was < 10 nM.

Cou6-[βAla]LTF[R8]EYWAQ[hLeu][S5]SAA-NH2 (staple 5-12; reading uncertain) [SP446] was tested. Which IC50 [2] did it give?
The IC50 was > 1000 nM.

What about the Ki [2] of the same binder?
Its Ki is > 1000 nM.

With Cou8-[βAla]LTF[R8]EYWAQ[hLeu][S5]SAA-NH2 (staple 5-12; reading uncertain) [SP447] as the binder, how does the IC50 [2] read?
Its IC50 is > 1000 nM.

What about the Ki [2] of the same binder?
Its Ki is > 1000 nM.

Reference: patent US8927500
